From US20190144863, “MODULATING THE CELLULAR STRESS RESPONSE” (The General Hospital Corporation, published 2019) come the findings set out here.

Series [1] concerns the target T1, EZH2 (UniProt Q61188 Q61188:1-746). Briefly: filter; double-filter binding, same buffer with yeast tRNA; extremely low affinity. The conditions noted are these: label: radiolabelled (cpm).
For series [2], the target named is T1, EZH2. Briefly: FP filter; double-filter binding; 50 mM Tris pH 8.0, 100 mM NaCl, 5 mM MgCl2, 50 ng/ul yeast tRNA, 30 C. The conditions noted are these: folded; critical region nt 81-131.

Bounds are passed on as bounds.

T1 sequence (Q61188 whole entry, one chain of several): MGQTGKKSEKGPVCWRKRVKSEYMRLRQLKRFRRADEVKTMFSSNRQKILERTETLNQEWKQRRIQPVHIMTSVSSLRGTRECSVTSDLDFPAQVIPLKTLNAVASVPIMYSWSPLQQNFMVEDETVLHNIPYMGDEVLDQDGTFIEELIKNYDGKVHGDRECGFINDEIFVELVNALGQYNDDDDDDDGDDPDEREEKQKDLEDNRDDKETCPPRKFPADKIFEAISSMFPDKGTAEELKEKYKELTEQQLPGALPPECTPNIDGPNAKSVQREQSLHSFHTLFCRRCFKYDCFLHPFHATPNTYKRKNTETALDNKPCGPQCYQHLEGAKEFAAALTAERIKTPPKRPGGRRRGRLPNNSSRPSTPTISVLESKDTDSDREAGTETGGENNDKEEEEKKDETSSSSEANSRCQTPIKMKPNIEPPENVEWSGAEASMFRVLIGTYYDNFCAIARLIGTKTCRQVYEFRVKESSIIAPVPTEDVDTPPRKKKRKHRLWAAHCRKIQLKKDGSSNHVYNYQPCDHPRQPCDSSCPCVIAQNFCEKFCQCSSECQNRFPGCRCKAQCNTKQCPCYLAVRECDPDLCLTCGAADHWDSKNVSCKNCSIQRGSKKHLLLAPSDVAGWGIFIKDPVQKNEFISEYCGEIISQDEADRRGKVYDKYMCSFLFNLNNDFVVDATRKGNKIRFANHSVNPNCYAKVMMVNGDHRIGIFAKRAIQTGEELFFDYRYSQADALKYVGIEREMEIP

B1: B2 RNA domain I+II (ssRNA)
RNA: GGGGCUGGUGAGAUGGCUCAGUGGGUAAGAGCACCCGACUGCUCUUCCGAAGGUCCGGAGUUCAAAUCCCAGCAACCACAUGGUGGCUCACAACCAUCCGUAACG
modifications: [none]
Turning to B1, in the series with EZH2 [1], the Kd (commonly the concentration at which binding is half-saturated) is greater than 3000 nM.

B2: B2 RNA full length (ssRNA)
RNA: GGGGCUGGUGAGAUGGCUCAGUGGGUAAGAGCACCCGACUGCUCUUCCGAAGGUCCGGAGUUCAAAUCCCAGCAACCACAUGGUGGCUCACAACCAUCCGUAACGAGAUCUGACUCCCUCUUCUGGAGUGUCUGAAGACAGCUACAGUGUACUUACAUAUAAUAAAUAAAUAAAUCUUUAAAAAAAAA
Molecule B2 had a Kd in the series with EZH2 [2] of 423 nM.
CGUAACGAGAUCUGACUCCCUCUUCUGGAGUGUCUGAAGACA (ssRNA, [none]) [B2 RNA domain III] had a dissociation constant Kd in the series with EZH2 [1] greater than 3000 nM.

B3: B2 RNA domain I (ssRNA)
RNA: GGGGCUGGUGAGAUGGCUCAGUGGGUAAGAGCACCCGACUGCUCUUCCGAAGGUCCGGAGUUCAAAUCCCAG
modifications: [none]
B3 registered a Kd in the series with EZH2 [1] greater than 3000 nM.
